Results from patent US20110212843, “STRUCTURE BASED AND COMBINATORIALLY SELECTED OLIGONUCLEOSIDE PHOSPHOROTHIOATE AND PHOSPHORODITHIOATE APTAMER TARGETING AP-1 TRANSCRIPTION FACTORS” (BOARD OF REGENTS, THE UNIVERSITY OF TEXAS SYSTEM, published 2011).

Tests used:
[1] = biological target: T1, NF-kB p50 homodimer (UniProt P19838 P19838:1-433); assay: bead fluorescence, Alexa Fluor 488-p50; conditions: chain copies: 2 stated
Text: (§1) The dsDNA thioaptamer library beads were screened for the ability to bind the NF-κB p50/p50 dimer labeled with the Alexa Fluor 488 dye (Molecular Probes). After initial binding of protein, the beads were thoroughly washed with PBS with 0.1% Tween 20 to minimize nonspecific binding. Typically, a few positive beads were intensely stained when viewed by fluorescence, while the majority of the beads remained unstained as (data not shown). With the aid of a micropipette coupled to a micromanipulator, the intensely stained beads were retrieved. Only highly positive beads from several thousand were found using this method. As described below, multicolor flow cytometry and cell/bead sorting was used to automate the selection process to select the tightest binding thioaptamer-protein complexes.
(§2) Sequencing may also be obtained directly from the bead. Each individually selected bead was washed thoroughly with 8 M urea (pH 7.2) to remove the protein and was directly used for the “one-bead one-PCR” amplification using the 5′ and 3′ end primers. The PCR product was cloned using the TA Cloning procedure (Invitrogen) and sequenced on an ABI Prism 310 Genetic Analyzer (Applied Biosystems). The four thioaptamers listed in Table 3 were obtained from the library. […] The fluorescence intensity of all of the beads viewed under the fluorescence microscope was qualitatively similar to the intensity of the selected bead containing this sequence within the combinatorial library. […] Thus, the split synthesis has been used to create a “one-bead-one sequence” ODN and that PCR can be used to identify an S-ODN bound to a bead (Yang et al., 2002; Gorenstein et al, US & Foreign Patents pending, 1999 a, b, 2001, 2002).

[2] = biological target: AP-1 c-Jun (Homo sapiens, UniProt P05412 P05412:1-331); assay: EMSA; specific binding to recombinant human c-Jun dimers; conditions: chain copies: 2 stated
AP-1 c-Jun, sequence (P05412 whole entry, one chain of several): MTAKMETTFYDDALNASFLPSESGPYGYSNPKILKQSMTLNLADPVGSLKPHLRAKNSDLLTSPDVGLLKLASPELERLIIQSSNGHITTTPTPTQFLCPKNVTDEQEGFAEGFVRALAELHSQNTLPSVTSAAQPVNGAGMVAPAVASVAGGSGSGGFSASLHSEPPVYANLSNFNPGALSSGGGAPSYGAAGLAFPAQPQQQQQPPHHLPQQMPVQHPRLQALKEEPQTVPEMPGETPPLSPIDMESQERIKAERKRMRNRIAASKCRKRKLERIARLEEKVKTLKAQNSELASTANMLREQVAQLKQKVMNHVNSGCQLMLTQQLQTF

[3] = biological target: NF-kB p65 (Rel A) homodimer (UniProt Q04206 Q04206:1-551)
NF-kB p65 (Rel A) homodimer, sequence (Q04206 whole entry, one chain of several): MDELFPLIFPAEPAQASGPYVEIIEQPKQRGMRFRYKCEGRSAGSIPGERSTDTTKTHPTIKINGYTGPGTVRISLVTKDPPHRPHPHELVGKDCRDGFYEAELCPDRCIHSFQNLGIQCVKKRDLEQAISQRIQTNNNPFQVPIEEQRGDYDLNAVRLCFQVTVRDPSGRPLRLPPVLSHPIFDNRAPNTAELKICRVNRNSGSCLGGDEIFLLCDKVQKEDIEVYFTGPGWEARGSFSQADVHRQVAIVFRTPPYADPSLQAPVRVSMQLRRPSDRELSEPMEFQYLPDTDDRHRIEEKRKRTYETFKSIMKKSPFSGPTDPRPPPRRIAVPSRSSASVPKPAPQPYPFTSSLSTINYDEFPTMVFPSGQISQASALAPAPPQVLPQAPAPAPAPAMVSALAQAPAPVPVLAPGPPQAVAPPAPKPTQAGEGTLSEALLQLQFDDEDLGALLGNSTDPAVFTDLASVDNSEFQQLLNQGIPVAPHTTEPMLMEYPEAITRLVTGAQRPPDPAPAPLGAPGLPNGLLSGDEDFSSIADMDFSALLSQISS

[4] = biological target: T1, NF-kB p50 homodimer; assay: sub-nM binding affinity; conditions: chain copies: 2 stated
[5] = biological target: T1, NF-kB p50 homodimer; assay: resynthesised on bead; text labels it SEQ ID NO 7 but printed sequence differs; conditions: chain copies: 2 stated
Text: as §2

[6] = biological target: T1, NF-kB p50 homodimer; assay: bead fluorescence, Alexa Fluor 488-p50; PBS 0.1% Tween 20 wash; conditions: chain copies: 2 stated
Text: as §1
Sequencing may also be obtained directly from the bead. Each individually selected bead was washed thoroughly with 8 M urea (pH 7.2) to remove the protein and was directly used for the “one-bead one-PCR” amplification using the 5′ and 3′ end primers. The PCR product was cloned using the TA Cloning procedure (Invitrogen) and sequenced on an ABI Prism 310 Genetic Analyzer (Applied Biosystems). […] The fluorescence intensity of all of the beads viewed under the fluorescence microscope was qualitatively similar to the intensity of the selected bead containing this sequence within the combinatorial library. […]

T1 sequence (P19838 1-433, one chain of several): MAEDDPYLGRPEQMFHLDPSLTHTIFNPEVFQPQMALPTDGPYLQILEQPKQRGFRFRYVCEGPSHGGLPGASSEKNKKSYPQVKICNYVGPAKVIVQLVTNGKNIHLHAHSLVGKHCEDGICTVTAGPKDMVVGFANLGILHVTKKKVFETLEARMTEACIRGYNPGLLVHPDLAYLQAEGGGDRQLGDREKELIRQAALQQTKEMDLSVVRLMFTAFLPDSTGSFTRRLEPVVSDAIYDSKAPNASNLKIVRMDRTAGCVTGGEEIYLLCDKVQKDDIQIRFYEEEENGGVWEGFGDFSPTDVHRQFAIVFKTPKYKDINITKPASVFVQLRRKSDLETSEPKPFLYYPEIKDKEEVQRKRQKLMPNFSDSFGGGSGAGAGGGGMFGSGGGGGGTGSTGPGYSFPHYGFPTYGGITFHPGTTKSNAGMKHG

B1: Split-synthesis thioaptamer SEQ 8 (dsDNA)
DNA 1: ATGCACATCTCAGGATGACGGT
DNA 2: ACCGTCATCCTGAGATGTGCAT
modifications: PS 3' of lower-case bases in AtGcAcAtCtCaGgAtGaCGGt, one strand
B1: binds [1].

B2: XBY-S2 (dsDNA)
DNA 1: CCAGTGACTCAGTG
DNA 2: CACTGAGTCACTGG
modifications: phosphorodithioates, 6 in total, 3' of T at S2 positions as printed (3 per strand)
B2: binds [2].

B3: XBY-6 (dsDNA)
DNA 1: CCAGGAGATTCCAC
DNA 2: GTGGAATCTCCTGG
modifications: phosphorodithioate 3' of T9 and T10 of top strand and 3' of each T printed as S2T in bottom strand (4), 6 in total
In the case of B3, the Kd [3] is reported as 1.4 nM and the Kd [4] is reported as < 1 nM.

B4: Split-synthesis thioaptamer SEQ 7 (dsDNA)
DNA 1: CTGTGCATCGAAGTTTGCATTT
DNA 2: AAATGCAAACTTCGATGCACAG
modifications: PS 3' of lower-case bases in CtGTGCatCGAaGTTtGCAtTt, one strand
B4: binds [1].

B5: Split-synthesis thioaptamer SEQ 9 (dsDNA)
DNA 1: AGTTGCAGGTCAGGACCCATTT
DNA 2: AAATGGGTCCTGACCTGCAACT
modifications: PS 3' of lower-case bases in AGTTGcAGGtCaGgACCCAtTt, one strand
B5: binds [1].

B6: Resynthesised bead thioaptamer (dsDNA)
DNA 1: CTGTGAGTCGACTGATGACGGT
DNA 2: ACCGTCATCAGTCGACTCACAG
modifications: PS 3' of lower-case bases, one strand
B6: binds [5].

B7: Split-synthesis thioaptamer SEQ 6 (dsDNA)
DNA 1: TGTGCAGGGACTGATGACGGT
DNA 2: ACCGTCATCAGTCCCTGCACA
modifications: PS 3' of lower-case bases in tGTGcAGGGACTgAtGaCGGt, one strand
B7: binds [6].
